From the supplement of paper PMC9732359
± gives the uncertainty stated by the source.

Test: protein stability index of a GFP-peptide fusion (yeast GPS) (PSI 1-4); higher = more stable; sorted into four equal gates, so the index is relative within each strain
How it was run: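 Yeast carrying a pooled library were grown to mid-log phase in leucine-free medium. Each library plasmid expresses Cherry and has a tiled 17-residue yeast protein peptide fused downstream of GFP. Cells were sorted into four equal gates by GFP/Cherry ratio, and plasmids from each gate were PCR-amplified, Illumina-sequenced and assigned to strains by barcode. Summing, across gates, the read frequency times the gate number gave each peptide's protein stability index.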

Sequence: MIVYYKDAISFIKEIHK [YCS4]
- protein stability index (doa10∆): 2.19 ± 0.092
- protein stability index (pdr5∆): 1.84 ± 0.069
- protein stability index (san1∆): 2.57 ± 0.11
- protein stability index (ubr1∆): 2.26 ± 0.072

Sequence: MKLVNFLKKLRNEQVTI [SMD1]
- protein stability index (doa10∆): 1.87 ± 0.17
- protein stability index (pdr5∆): 1.93 ± 0.095
- protein stability index (san1∆): 2.04 ± 0.14
- protein stability index (ubr1∆): 2.5 ± 0.11

Sequence: MKPSEILSLIEEAAGTK [SMC2]
- protein stability index (doa10∆): 3.24 ± 0.1
- protein stability index (pdr5∆): 3.23 ± 0.084
- protein stability index (san1∆): 3.22 ± 0.083
- protein stability index (ubr1∆): 3.22 ± 0.064

Sequence: MKQLKFFKPLDYITEAV [SNU114]
- protein stability index (doa10∆): 2.12 ± 0.043
- protein stability index (pdr5∆): 2.05 ± 0.052
- protein stability index (san1∆): 1.86 ± 0.082
- protein stability index (ubr1∆): 1.92 ± 0.036

Sequence: MKRMVAQWERSKLSQEF [SNF12]
- protein stability index (doa10∆): 3.23 ± 0.22
- protein stability index (pdr5∆): 3.05 ± 0.15
- protein stability index (san1∆): 3.11 ± 0.23
- protein stability index (ubr1∆): 3.21 ± 0.087

Sequence: MKTPSLTVYLEPGHAAD [RPO21]
- protein stability index (doa10∆): 3.01 ± 0.092
- protein stability index (pdr5∆): 2.7 ± 0.079
- protein stability index (san1∆): 2.9 ± 0.059
- protein stability index (ubr1∆): 3 ± 0.073

Sequence: MKVEELIIDGFKSYATR [SMC2]
- protein stability index (doa10∆): 3.45 ± 0.19
- protein stability index (pdr5∆): 3.21 ± 0.08
- protein stability index (san1∆): 3.11 ± 0.063
- protein stability index (ubr1∆): 3.22 ± 0.096

Sequence: MKVKADRDESSPYAAML [RPS14A]
- protein stability index (doa10∆): 3.37 ± 0.1
- protein stability index (pdr5∆): 3.29 ± 0.065
- protein stability index (san1∆): 3.23 ± 0.048
- protein stability index (ubr1∆): 3.27 ± 0.068

Sequence: MLSAHNIIESIANFSRA [YJR042W/NUP85]
- protein stability index (doa10∆): 2.31 ± 0.074
- protein stability index (pdr5∆): 2.43 ± 0.063
- protein stability index (san1∆): 2.87 ± 0.048
- protein stability index (ubr1∆): 2.48 ± 0.036

Sequence: MNFISKEEFIMMVNISV [PCI8]
- protein stability index (doa10∆): 1.41 ± 0.059
- protein stability index (pdr5∆): 1.25 ± 0.046
- protein stability index (san1∆): 1.32 ± 0.16
- protein stability index (ubr1∆): 1.37 ± 0.063

Sequence: MNFNTPQQNKTPFSFGT [YJL041W/NSP1]
- protein stability index (doa10∆): 3.15 ± 0.057
- protein stability index (pdr5∆): 3 ± 0.051
- protein stability index (san1∆): 2.92 ± 0.061
- protein stability index (ubr1∆): 2.95 ± 0.05

Sequence: MNNETSGKETASAPLCS [DLS1]
- protein stability index (doa10∆): 3.01 ± 0.067
- protein stability index (pdr5∆): 3.21 ± 0.06
- protein stability index (san1∆): 3.18 ± 0.055
- protein stability index (ubr1∆): 3.12 ± 0.063

Sequence: MNQSSIDRGLFRSLFFR [RPB2]
- protein stability index (doa10∆): 3.16 ± 0.16
- protein stability index (pdr5∆): 2.97 ± 0.2
- protein stability index (san1∆): 2.63 ± 0.26
- protein stability index (ubr1∆): 2.94 ± 0.08

Sequence: MPDEFNTLYTAIITDDL [SRP72]
- protein stability index (doa10∆): 2.39 ± 0.047
- protein stability index (pdr5∆): 2.5 ± 0.043
- protein stability index (san1∆): 2.6 ± 0.035
- protein stability index (ubr1∆): 2.64 ± 0.043

Sequence: MQANKLDSQETPSTEES [SWI3]
- protein stability index (doa10∆): 1.79 ± 0.096
- protein stability index (pdr5∆): 2.35 ± 0.073
- protein stability index (san1∆): 2.39 ± 0.11
- protein stability index (ubr1∆): 2.36 ± 0.056

Sequence: MQEKAAHIAKNLINLSI [YCS4]
- protein stability index (doa10∆): 2.15 ± 0.15
- protein stability index (pdr5∆): 1.55 ± 0.2
- protein stability index (ubr1∆): 1.46 ± 0.093

Sequence: MQGKITKVLNMKPSEIL [SMC2]
- protein stability index (doa10∆): 2.48 ± 0.25
- protein stability index (pdr5∆): 2.88 ± 0.18

Sequence: MQTALRRLPEDESYARA [QCR7]
- protein stability index (doa10∆): 2.78 ± 0.058
- protein stability index (pdr5∆): 2.5 ± 0.066
- protein stability index (san1∆): 2.34 ± 0.05
- protein stability index (ubr1∆): 2.39 ± 0.044

Sequence: MQVLNTKSETKQENETM [MED11]
- protein stability index (doa10∆): 2.79 ± 0.081
- protein stability index (pdr5∆): 2.16 ± 0.11
- protein stability index (san1∆): 1.41 ± 0.26
- protein stability index (ubr1∆): 2 ± 0.092

Sequence: MSAKAEKKPASKAPAEK [HTB1]
- protein stability index (doa10∆): 3.51 ± 0.13
- protein stability index (pdr5∆): 3.41 ± 0.12
- protein stability index (san1∆): 3.16 ± 0.12
- protein stability index (ubr1∆): 2.89 ± 0.098

Sequence: MSDHSLDKLNCAINSKS [RRP6]
- protein stability index (doa10∆): 2.49 ± 0.057
- protein stability index (pdr5∆): 2.8 ± 0.047
- protein stability index (san1∆): 2.59 ± 0.051
- protein stability index (ubr1∆): 2.83 ± 0.036

Sequence: MSESSDISAMQPVNPKP [SMX3]
- protein stability index (doa10∆): 3.42 ± 0.15
- protein stability index (pdr5∆): 3.51 ± 0.16
- protein stability index (san1∆): 3.4 ± 0.12
- protein stability index (ubr1∆): 3.17 ± 0.14

Sequence: MSGSLKSLDKKIAKRRQ [POP3]
- protein stability index (doa10∆): 3.19 ± 0.24
- protein stability index (pdr5∆): 2.98 ± 0.21
- protein stability index (ubr1∆): 3.5 ± 0.2

Sequence: MSGYDRALSIFSPDGHI [PRE6]
- protein stability index (doa10∆): 2.82 ± 0.12
- protein stability index (pdr5∆): 2.38 ± 0.14
- protein stability index (san1∆): 2.76 ± 0.09
- protein stability index (ubr1∆): 2.69 ± 0.077

Sequence: MSKITSSQVREHVKELL [RPL1A]
- protein stability index (doa10∆): 1.59 ± 0.092
- protein stability index (pdr5∆): 2.09 ± 0.065
- protein stability index (san1∆): 2.45 ± 0.093
- protein stability index (ubr1∆): 1.99 ± 0.051

Sequence: MSLRHFGHLMHYGNEHI [RPN1]
- protein stability index (doa10∆): 1.47 ± 0.04
- protein stability index (pdr5∆): 1.38 ± 0.039
- protein stability index (san1∆): 1.4 ± 0.066
- protein stability index (ubr1∆): 1.33 ± 0.032

Sequence: MSLVVQEQGSFQHILRL [RPS18A]
- protein stability index (doa10∆): 2.95 ± 0.14
- protein stability index (pdr5∆): 2.83 ± 0.12
- protein stability index (san1∆): 2.65 ± 0.1
- protein stability index (ubr1∆): 2.92 ± 0.1

Sequence: MSNKVKTKAMVPPINCI [SME1]
- protein stability index (doa10∆): 2.42 ± 0.057
- protein stability index (pdr5∆): 2.35 ± 0.053
- protein stability index (san1∆): 2.64 ± 0.05
- protein stability index (ubr1∆): 2.57 ± 0.035

Sequence: MSQGQSKKLDVTVEQLR [NSL1]
- protein stability index (doa10∆): 2.64 ± 0.075
- protein stability index (pdr5∆): 2.74 ± 0.075
- protein stability index (san1∆): 2.7 ± 0.056
- protein stability index (ubr1∆): 2.78 ± 0.075

Sequence: MSQSTASLVPEGNQGSL [MED8]
- protein stability index (doa10∆): 3.16 ± 0.12
- protein stability index (pdr5∆): 2.97 ± 0.1
- protein stability index (san1∆): 2.62 ± 0.096
- protein stability index (ubr1∆): 2.76 ± 0.13

Sequence: MSSTNGNAPATPSSDQN [SOH1]
- protein stability index (doa10∆): 3.17 ± 0.09
- protein stability index (pdr5∆): 2.75 ± 0.1
- protein stability index (san1∆): 3.2 ± 0.058
- protein stability index (ubr1∆): 3.11 ± 0.1

Sequence: MSTDSIVKASNWRLVEV [RPL14A]
- protein stability index (doa10∆): 2.82 ± 0.1
- protein stability index (pdr5∆): 1.44 ± 0.13
- protein stability index (ubr1∆): 1.71 ± 0.087

Sequence: MSTFIFPGDSFPVDPTT [RRP40]
- protein stability index (doa10∆): 2.17 ± 0.11
- protein stability index (pdr5∆): 2.06 ± 0.092
- protein stability index (san1∆): 2.35 ± 0.068
- protein stability index (ubr1∆): 2.35 ± 0.074

Sequence: MTDMQIQWYKSLLEKDI [ISW2]
- protein stability index (doa10∆): 1.84 ± 0.058
- protein stability index (pdr5∆): 2.35 ± 0.062
- protein stability index (san1∆): 1.74 ± 0.092
- protein stability index (ubr1∆): 2.78 ± 0.061

Sequence: MTLNRKCVVIHNGSHRT [ARP7]
- protein stability index (doa10∆): 2.59 ± 0.051
- protein stability index (pdr5∆): 2.74 ± 0.062
- protein stability index (san1∆): 2.54 ± 0.059
- protein stability index (ubr1∆): 2.66 ± 0.045

Sequence: MTPLLVNCLELLINTNF [PCI8]
- protein stability index (doa10∆): 1.6 ± 0.037
- protein stability index (pdr5∆): 1.6 ± 0.042
- protein stability index (san1∆): 1.48 ± 0.078
- protein stability index (ubr1∆): 1.42 ± 0.057

Sequence: MTPVIEKIAAGYMQKPV [PRP28]
- protein stability index (doa10∆): 2.16 ± 0.11
- protein stability index (pdr5∆): 1.93 ± 0.11
- protein stability index (san1∆): 1.83 ± 0.14
- protein stability index (ubr1∆): 2.68 ± 0.075

Sequence: MVDVEEKSQEVEYVDPT [RPN7]
- protein stability index (doa10∆): 3.06 ± 0.22
- protein stability index (ubr1∆): 3.38 ± 0.16

Sequence: MVLFNIYDDWLDRISSY [PRP8]
- protein stability index (doa10∆): 2.26 ± 0.054
- protein stability index (pdr5∆): 2.47 ± 0.046
- protein stability index (san1∆): 2.19 ± 0.075
- protein stability index (ubr1∆): 2.26 ± 0.045

Sequence: MVMAGSKGSFINIAQMS [RPO21]
- protein stability index (doa10∆): 1.43 ± 0.054
- protein stability index (pdr5∆): 1.67 ± 0.049
- protein stability index (san1∆): 1.25 ± 0.083
- protein stability index (ubr1∆): 1.42 ± 0.05

Sequence: MVNESDGVTHALYPQEA [RPB2]
- protein stability index (doa10∆): 3.16 ± 0.087
- protein stability index (pdr5∆): 3.26 ± 0.081
- protein stability index (san1∆): 3.05 ± 0.067
- protein stability index (ubr1∆): 3.35 ± 0.086

Sequence: MYPSPTGVMIGIDLAYN [PRP8]
- protein stability index (doa10∆): 2.11 ± 0.074
- protein stability index (pdr5∆): 2.1 ± 0.07
- protein stability index (san1∆): 1.97 ± 0.081
- protein stability index (ubr1∆): 2.07 ± 0.048

Sequence: MYTLSAQDEVFSLAFSP [ASC1]
- protein stability index (doa10∆): 2.24 ± 0.062
- protein stability index (pdr5∆): 2.82 ± 0.085
- protein stability index (san1∆): 2.78 ± 0.059
- protein stability index (ubr1∆): 2.75 ± 0.066

Sequence: NAAGNTPDATKIKAILE [RPP2A]
- protein stability index (doa10∆): 3.13 ± 0.089
- protein stability index (pdr5∆): 3.32 ± 0.092
- protein stability index (san1∆): 2.99 ± 0.085
- protein stability index (ubr1∆): 3.19 ± 0.054

Sequence: NACAKYGRDDMENIKKS [ISW2]
- protein stability index (doa10∆): 2.91 ± 0.11
- protein stability index (pdr5∆): 2.93 ± 0.12
- protein stability index (san1∆): 3.08 ± 0.078
- protein stability index (ubr1∆): 3.06 ± 0.086

Sequence: NADLDVKDELMFSPLVD [RPO21]
- protein stability index (doa10∆): 3.17 ± 0.047
- protein stability index (pdr5∆): 3.08 ± 0.04
- protein stability index (san1∆): 3.15 ± 0.041
- protein stability index (ubr1∆): 3.31 ± 0.034

Sequence: NAGTEKEKESKKDSKPA [YLR335W/NUP2]
- protein stability index (doa10∆): 3.31 ± 0.084
- protein stability index (pdr5∆): 3.15 ± 0.074
- protein stability index (san1∆): 3.54 ± 0.056
- protein stability index (ubr1∆): 3.42 ± 0.05

Sequence: NANAGLFNKPPSTNAQN [YOR098C/NUP1]
- protein stability index (doa10∆): 3.1 ± 0.046
- protein stability index (pdr5∆): 3.17 ± 0.046
- protein stability index (san1∆): 3.06 ± 0.038
- protein stability index (ubr1∆): 3.16 ± 0.034

Sequence: NANTVFAGSNNQPHQSQ [YOR098C/NUP1]
- protein stability index (doa10∆): 2.85 ± 0.1
- protein stability index (pdr5∆): 3.15 ± 0.08
- protein stability index (san1∆): 2.89 ± 0.06
- protein stability index (ubr1∆): 3.07 ± 0.046
